Reference: US10864251B2, “Peptides of syndecan-1 for inhibiting angiogenesis” (Wisconsin Alumni Research Foundation, priority 2006, dated 2020)
Where two headings read alike, the source gives them in different places. Where no end group is shown, it is not given here.

B1: S1ED: recombinant mouse Sdc1 ectodomain (amino acids 18-251), expressed in bacteria as GST fusion or 6×His-tagged protein (protein)
chain: QPALPQIVAVNVPPEDQDGSGDDSDNFSGSGTGALPDTLSRQTPSTWKDVWLLTATPTAPEPTSSNTETAFTSVLPAGEKPEEGEPVLHVEAEPGFTARDKEKEVTTRPRETVQLPITQRASTVRVTTAQAAVTSHPHGGMQPGLHETSAPTAPGQPDHQPPRVEGGGTSVIKEVVEDGTANQLPAGEGSGEQDFTFETSGENTAVAAVEPGLRNQPPVDEGATGASQSLLDRK
modifications: left off: a dimerising Fc or GST
notes: recombinant mouse Sdc1 ectodomain (amino acids 18-251), expressed in bacteria as GST fusion or 6×His-tagged protein

Assays:
[1] = system: segments of mouse aorta; type: cell-based; conditions: for block of VEGF-induced outgrowth: 50 ng/ml VEGF, 7 days
Method: FIG. 12—SSTN blocks aortic ring angiogenesis. Aortic segments were explanted to collagen gels for 7 days in the presence of 50 ng/ml vascular endothelial cell growth factor (VEGF), or 30 ng/ml FGF-2 in the presence or absence of mS1ED or SSTN. Total outgrowth in quantified as the total length of all microvessels.
To test the activity of SSTN as an anti-angiogenic agent, the inventors turned to the in vitro aortic ring outgrowth assay and the in vivo corneal angiogenesis model. The aortic outgrowth assay allows quantification of microvessel outgrowth from segments of mouse aorta explanted to type I collagen gels. As was found when examining the mouse aortic endothelial cell line in culture, both syndecan-1 and the αvβ3 and αvβ5 integrins appear present even on the resting mouse aorta (FIG. 11A). In addition, microvessels growing out from the aortic explant over a 7 days period in response to FGF stain positively for syndecan-1, with appears co-expressed with the αvβ3 and αvβ5 integrins (FIG. 11B). To extend this finding of syndecan-1 expression in activated endothelium, the inventors also examined two models of mouse breast tumor formation. Tumors derived from wnt-1 overexpression in the mammary gland show a high degree of vascularization, identified as internal networks lined by a thick cell layer than stains intensely for syndecan-1 and for PECAM (CD31), indicative of activated endothelium (FIG. 11C). In fact, syndecan-1 expression in these cells swamps out the positive staining for syndecan-1 seen in the mammary epithelial cells, which are known to be positive for syndecan-1. These same cell layers as positive for αv, β3 and β5 integrin subunits. A similar finding is seen in tumors arising from overexpression of β-catenin (FIG. 11C). Although the vascularization is not as extensive as in the […] tumors, there are clear thickened layers of cells that are PECAM, syndecan-1 and αvβ3/αvβ5 integrin positive in these mammary tumors.
To test the effect of SSTN on microvessel outgrowth, segments of thoracic aorta were explanted to collagen gels in the presence of either 50 ng/ml vascular endothelial cell growth factor (VEGF) or 30 ng/ml FGF-2, and incubated in the presence of either recombinant mS1ED or SSTN. Although some vessel outgrowth is observed in the absence of exogenous angiogenic agents, likely due to VEGF release by supporting cells growing out from the explant, the outgrowth is greatly (≥10-fold) increased by FGF or VEGF (FIG. 12). Addition of recombinant mS1ED blocks VEGF-induced outgrowth by more than 70% at 10 μM, and greater than 95% at 30 μM. FGF induced outgrowth requires slightly higher inhibitory concentrations (approximately 30 μM mS1ED for 70% inhibition), which may trace to a difference in susceptibility of the two integrins, as VEGF signaling is reportedly coupled to αvβ5 integrin activation and FGF signaling is coupled to αvβ3 activation. […] It should be noted that the microvessel outgrowth is accompanied by the outgrowth of support cells, most likely smooth muscle cells and fibroblasts. […] Thus, the effects of SSTN are highly localized to the vascular endothelial cells.

[2] = system: human dermal microvascular endothelial cells (HMEC-1); type: cell-based
Method: FIGS. 6A-6H—Inhibition of B82L fibroblast and HMEC-1 cell attachment and spreading on VN by synstatin82-130. B82L fibroblasts, which rely on the αvβ5 integrin for attachment to VN, and human dermal microvascular endothelial cells, which rely on both the αvβ3 and αvβ5 integrins for attachment to VN, were plated in the absence of peptide (FIGS. 6A, 6E) or in the presence of 0.1 (FIGS. 6B, 6F), 0.3 (FIGS. 6C, 6G) or 1 μM (FIGS. 6D, 6H) synstatin82-130 for 2 hr and processed as described in FIG. 2.
FIGS. 10A-10D—Dependence of HMEC cell attachment and spreading on integrin activation by Sdc1 and its inhibition by SSTN. (FIG. 10A) HMECs were plated for 2 hr either on Sdc1-specific antibody B-B4 to engage Sdc1 or on VN (10 μg/ml coating concentration) to engage the αvβ3 and αvβ5 integrins. Blocking antibodies LM609 (10 μg/ml, specific for αvβ3) and P1F6 (10 μg/ml, specific for αvβ5), SSTN (0.5 μM) or recombinant mouse Sdc1 ectodomain (mS1ED, 5 μM) were added. The ligand mimetic antibody WOW1 was used to detect activated αvβ3 integrin on cells plated on B-B4. (FIG. 10B) HMECs were treated with siRNA oligo specific for human Sdc1 for 48 hr prior to plating on VN. Sdc1 expression was quantified by flow cytometry using human Sdc1-specific mAb B-B4 or a control mouse IgG. (FIG. 10C-10D) The percentage of cell attaching or attaching and spreading was quantified for HMECs, HAEC and MAECs plated on VN for 24 hr in the presence of mS1ED or SSTN, or after siRNA silencing of Sdc1 expression in the presence of mAb LM609 to block αvβ3 integrin, P1F6 to block αvβ5 integrin, or both antibodies.
FIG. 14—Activity of SSTN peptides. A diagram of SSTN82-130 used in our experiments is shown. The gray letters designate amino acids that are identical or highly conserved across species (mouse, human, rat, hamster). Shorter peptides have been tested using HMEC-1 endothelial cells for inhibition of […] mediated cell attachment and spreading in comparison to SSTN82-130.
Cell adhesion and spreading assays were performed with modification to the previous procedures (Lebakken and Rapraeger, 1996. Briefly, human plasma vitronectin or fibronectin at 10-30 μg/ml were applied to nitrocellulose-coated ten well slides (Erie Scientific) and incubated for 1-2 h at 37° C. Slides were blocked with 1.0% heat-denatured bovine serum albumin for a minimum of 30 min at 37° C. Cells were detached from the substratum using 5 mM EDTA in Tris-buffered saline and resuspended in HEPES-buffered culture medium containing 0.1% heat-denatured BSA. Cells were plated at a density of 15,000 cells per well and allowed to attach and spread for 2 h prior to fixation in 4% paraformaldehyde in CMF-PBS. For fluorescence microscopy, fixed cells were permeabilized in 0.2% Triton X-100, labeled with rhodamine-conjugated phalloidin and analyzed using fluorescence microscopy. For testing inhibition by recombinant mScd-1ED and synstatin82-130, cells were pre-incubated 10 min before plating in the presence of the inhibitor. […] LM609 was used as a specific block to αvβ3 and P1F6 was used as a specific blocker of αvβ5.
Finally, the inventors have examined HMEC-1 cells, which are immortalized human dermal microvascular endothelial cells. Microvascular endothelial cells are regarded as being the main source of endothelial cells that carry out angiogenesis in vivo. The HMEC-1 cells grown in serum-containing culture medium express Sdc1 (as noted earlier) and also express active αvβ3 and αvβ5 integrins. […]

Molecule | IC50 [1] | IC50 ([2]; 6 h) | concentration for 70% inhibition of FGF induced outgrowth ([1]; 30 ng/ml FGF-2, 7 days) | block of VEGF-induced outgrowth ([1]; 10 μM) | block of VEGF-induced outgrowth ([1]; 30 μM) | outgrowth of support cells (non-endothelial) ([1]; aortic ring explants) | IC50 ([2]; HMEC-1, αvβ3 and αvβ5 integrin-dependent, read-out: IC50, spreading on VN) | reduction of cell spreading ([2]; HMECs on vitronectin, 1-3 μM) | spreading on vitronectin ([2]; HMECs, 5.0 μM)
SNTETAFTSVLPAGEKPEEGEPVLHVEAEPGFTARDKEKEVTTRPRETV [synstatin82-130] | 100 nM | ~100 nM |  |  |  |  |  |  | 
B1 |  |  | approximately 30 μM | more than 70% | greater than 95% | unaffected | 3000 to 10000 nM | 80-90% | blocks spreading as effectively as the combined antibody treatment
